Assay [1] has as its target human glucagon (human). The assay can be described thus: cell-based or functional assay.
For assay [2], the target named is T1, human glucagon (human).
T1 construct: Bought peptide (Phoenix Pharmaceuticals, #028-02); 29 residue hormone; also called GCG; human GCG
The assay can be described thus: SPR Biacore 4000, antibody captured by anti-human Fc, GCG injected, 37 C. The protocol:
(§1) Experiments were performed at 25° C. and 37° C.
(§2) Kinetic association (kₐ) and dissociation (kd) rate constants were determined by processing and fitting the data to a 1:1 binding model using Scrubber 2.0c curve fitting software. Binding dissociation equilibrium constants (KD) and dissociative half-lives (t½) were calculated from the kinetic rate constants as: […]

In assay [3] the target is T1, human glucagon. As to the kind of experiment: SPR Biacore 4000, antibody captured by anti-human Fc, GCG injected, 25 C. The protocol: as §1, §2
On the technique in general: SPR reads the build-up and loss of mass on a sensor chip optically.

Changes are numbered by the printed parent chain.

T1 sequence (peptide, as listed by the source): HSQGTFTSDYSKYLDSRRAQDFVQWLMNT

B1: H4H10238P (antibody, V domains shown)
VH: QVQLVESGGGVVQPGRSLRLSCAASGFTFSSYGMHWVRQAPVKGLEWVAFISNDKSNKYYADSLKGRFTISRDNSKNTLYLQMNSLTAEDTAVYYCAKESILAALFDYWGQGTLVTVSS
VL: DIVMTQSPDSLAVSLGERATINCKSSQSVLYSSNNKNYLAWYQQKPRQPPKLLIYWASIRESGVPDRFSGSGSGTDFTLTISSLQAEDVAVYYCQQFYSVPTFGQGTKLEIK
B1: the “IC50, inhibition of GCG activation of HEK293/CRE-luc/hGCGR cells (luciferase reporter, 40 pM GCG)” value with human glucagon [1] came to 1.8e-11 M. For the same molecule, in the assay with human glucagon [2], the Kd (as a rule, a measure of binding affinity in units of concentration) turned out to be 0.555 nM; the koff – broadly, the first-order rate constant of dissociation – was 0.00274 s⁻¹; the kon – broadly, the second-order rate constant of association – worked out at 4.94e+06 M⁻¹ s⁻¹; the t½ (usually how long it takes for the measured level to halve) amounted to 4 min. In the assay with human glucagon [3], this molecule returned a dissociation constant Kd of 0.16 nM, a koff of 0.00062 s⁻¹, a kon of 3.89e+06 M⁻¹ s⁻¹ and a t½ of 19 min.

B2: H4H10236P (antibody, V domains shown)
VH: B1 VH with A40T, V42G, N53Y, K55G, S56N, L64V, Y80F, T87R
VL: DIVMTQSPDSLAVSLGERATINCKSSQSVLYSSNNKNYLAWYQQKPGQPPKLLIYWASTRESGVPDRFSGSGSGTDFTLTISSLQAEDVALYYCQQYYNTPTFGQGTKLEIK
As to B2, the “IC50, inhibition of GCG activation of HEK293/CRE-luc/hGCGR cells (luciferase reporter, 40 pM GCG)” value with human glucagon [1] was determined as 2.5e-10 M. In the assay with human glucagon [2], the Kd stood at 2.08 nM, the koff was 0.0088 s⁻¹, the kon was 4.25e+06 M⁻¹ s⁻¹ and the t½ amounted to 1 min. Moreover, in the assay with human glucagon [3], the Kd is 0.242 nM, the koff stood at 0.000746 s⁻¹, the kon came to 3.08e+06 M⁻¹ s⁻¹ and the t½ is 15 min.

B3: H4H10270P (antibody, V domains shown)
VH: B1 VH with L64V, Y108S
VL: DIVMTQSPDSLAVSLGERATINCKSSQSVLYSSNNKNYLAWYQQKPRQPPKLLIYWASIRESGVPDRFSGSGSGADFTLTISSLQAADVAVYYCQQFYSVPTFGQGTKLEIK
With B3, in the assay with human glucagon [1], the “IC50, inhibition of GCG activation of HEK293/CRE-luc/hGCGR cells (luciferase reporter, 40 pM GCG)” value stood at 2.2e-11 M. In the assay with human glucagon [2], this molecule yielded a Kd of 0.559 nM, a koff of 0.00378 s⁻¹, an association rate constant (kon) of 6.77e+06 M⁻¹ s⁻¹ and a t½ of 3 min. In addition, in the assay with human glucagon [3], binding was put at a Kd of 0.153 nM, the koff is 0.000732 s⁻¹, the kon was 4.8e+06 M⁻¹ s⁻¹ and the t½ worked out at 16 min.

B4: H4H10237P (antibody, V domains shown)
VH: B1 VH with N53Y, K55G, L64V
VL: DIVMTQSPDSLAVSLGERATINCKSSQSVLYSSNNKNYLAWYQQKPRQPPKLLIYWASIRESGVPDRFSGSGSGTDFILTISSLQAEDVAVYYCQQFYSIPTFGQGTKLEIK
With B4, in the assay with human glucagon [1], the “IC50, inhibition of GCG activation of HEK293/CRE-luc/hGCGR cells (luciferase reporter, 40 pM GCG)” value was 3.4e-11 M. In the assay with human glucagon [2], this molecule showed a Kd of 0.907 nM, a koff of 0.00683 s⁻¹, a kon of 7.53e+06 M⁻¹ s⁻¹ and a t½ of 2 min. Further, in the assay with human glucagon [3], the affinity, expressed as Kd, was 0.208 nM; the koff came to 0.00103 s⁻¹; the kon worked out at 4.96e+06 M⁻¹ s⁻¹; the t½ stood at 11 min.

B5: H4H10223P (antibody, V domains shown)
VH: B1 VH with S30N, S31T, K58T, Y59F, L64V, Y80F, Q82E
VL: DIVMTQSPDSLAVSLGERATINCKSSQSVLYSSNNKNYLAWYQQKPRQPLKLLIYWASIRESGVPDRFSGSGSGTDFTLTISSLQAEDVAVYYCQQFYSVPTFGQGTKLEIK
notes: Kappa light chain variable region
In the case of B5, in the assay with human glucagon [1], the “IC50, inhibition of GCG activation of HEK293/CRE-luc/hGCGR cells (luciferase reporter, 40 pM GCG)” value turned out to be 9.5e-12 M. In the assay with human glucagon [2], this molecule registered a Kd of 0.347 nM, an off-rate constant (koff) of 0.00223 s⁻¹, a kon of 6.4e+06 M⁻¹ s⁻¹ and a t½ of 5 min. In the assay with human glucagon [3], this molecule came in with an equilibrium dissociation constant (Kd) of 0.0578 nM, a koff of 0.000541 s⁻¹, a kon of 9.36e+06 M⁻¹ s⁻¹ and a t½ of 21 min.

B6: H4H10231P (antibody, V domains shown)
VH: B1 VH with S31T, Y32F, S56N, Y59F, L64V, K76R, N77D, A88P
VL: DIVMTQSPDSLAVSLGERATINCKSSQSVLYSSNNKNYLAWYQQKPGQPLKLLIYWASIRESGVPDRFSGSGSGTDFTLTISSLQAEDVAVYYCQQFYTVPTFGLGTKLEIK
On to B6, for which, in the assay with human glucagon [1], the “IC50, inhibition of GCG activation of HEK293/CRE-luc/hGCGR cells (luciferase reporter, 40 pM GCG)” value came out at 7.3e-12 M. In addition, in the assay with human glucagon [2], the Kd is 1.01 nM, the koff stood at 0.00245 s⁻¹, the kon was 2.4e+06 M⁻¹ s⁻¹ and the t½ amounted to 5 min. For the same molecule, in the assay with human glucagon [3], the Kd amounted to 0.0927 nM, the koff is 0.000685 s⁻¹, the kon was determined as 7.39e+06 M⁻¹ s⁻¹ and the t½ was 17 min.

B7: H4H10250P (antibody, V domains shown)
VH: B1 VH with N53F, K55G, A61T, L64V, V93I
VL: B3 VL with K51N, A75T, A87E, V91F, V100I
Take B7: in the assay with human glucagon [1], the “IC50, inhibition of GCG activation of HEK293/CRE-luc/hGCGR cells (luciferase reporter, 40 pM GCG)” value amounted to 3.4e-11 M. Moreover, in the assay with human glucagon [2], binding was characterised by a dissociation constant (Kd) of 1.27 nM, the koff worked out at 0.00708 s⁻¹, the kon is 5.58e+06 M⁻¹ s⁻¹ and the t½ came to 2 min. In the assay with human glucagon [3], the dissociation constant (Kd) stood at 0.283 nM, the koff was determined as 0.000939 s⁻¹, the kon came to 3.32e+06 M⁻¹ s⁻¹ and the t½ was found to be 12 min.

B8: H4H10256P (antibody, V domains shown)
VH: B1 VH with S30R, S31T, N53K, K55G, N57D, A61V, L64V, Y80F
VL: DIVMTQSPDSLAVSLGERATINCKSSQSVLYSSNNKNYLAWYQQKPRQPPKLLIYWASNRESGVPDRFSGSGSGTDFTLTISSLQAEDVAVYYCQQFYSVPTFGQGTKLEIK
As to B8, in the assay with human glucagon [1], the “IC50, inhibition of GCG activation of HEK293/CRE-luc/hGCGR cells (luciferase reporter, 40 pM GCG)” value stood at 1.8e-11 M. Besides, in the assay with human glucagon [2], binding was put at a Kd of 0.314 nM, the koff was 0.00248 s⁻¹, the kon was 7.9e+06 M⁻¹ s⁻¹ and the t½ is 5 min. In addition, in the assay with human glucagon [3], the affinity, expressed as Kd, was 0.0753 nM; the koff was 0.000582 s⁻¹; the kon came out at 7.72e+06 M⁻¹ s⁻¹; the t½ stood at 20 min.

B9: H4H10232P (antibody, V domains shown)
VH: QVQLVESGGGVVQPGRSLRLSCVASGFTFRNYDMHWVRQAPGKGLEWVAVTSSDGLNKFYSDSVKGRFTISRDNSKNTLSLQITGLRAEDTAVYYCAKESILAALFDYWGQGTLVTVSS
VL: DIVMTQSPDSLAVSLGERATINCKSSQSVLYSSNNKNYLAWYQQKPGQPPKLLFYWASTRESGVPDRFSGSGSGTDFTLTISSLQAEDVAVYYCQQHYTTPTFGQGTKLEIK
With B9, the “IC50, inhibition of GCG activation of HEK293/CRE-luc/hGCGR cells (luciferase reporter, 40 pM GCG)” value with human glucagon [1] turned out to be 2.3e-11 M. In the assay with human glucagon [2], this molecule returned a Kd of 0.318 nM, a koff of 0.00147 s⁻¹, a kon of 4.61e+06 M⁻¹ s⁻¹ and a t½ of 8 min. In the assay with human glucagon [3], this molecule came in with a Kd of 0.0724 nM, a koff of 0.000231 s⁻¹, a kon of 3.19e+06 M⁻¹ s⁻¹ and a t½ of 50 min.

B10: H1H059P (antibody, V domains shown)
VH: QVQLVESGGGVVQPGRSLRLSCAASGFAFSNYGMHWVRQAPGKGLEWVTFISYDGSNKYYADSVKGRFTISRDNSKNTLYLQVNSLRAEDTAVYYCAKEAVLAALFDYWGQGTLVTVSS
VL: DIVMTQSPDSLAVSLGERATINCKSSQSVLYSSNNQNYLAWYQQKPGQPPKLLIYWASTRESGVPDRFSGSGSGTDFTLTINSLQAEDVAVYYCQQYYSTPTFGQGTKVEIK
notes: The antibody was captured by an anti-human Fc antibody in SPR
As for B10, the “IC50, inhibition of GCG activation of HEK293/CRE-luc/hGCGR cells (luciferase reporter, 40 pM GCG)” value with human glucagon [1] came out at 9.1e-10 M. In the assay with human glucagon [2], this molecule came in with a Kd of 4.78 nM, a koff of 0.0236 s⁻¹, a kon of 4.9e+06 M⁻¹ s⁻¹ and a t½ of 0.5 min. Moreover, in the assay with human glucagon [3], the Kd turned out to be 0.715 nM, the koff came to 0.00178 s⁻¹, the kon came to 2.5e+06 M⁻¹ s⁻¹ and the t½ amounted to 6 min.
